According to paper PMC6131064:
Substitutions are numbered along the chain they refer to. Numbers in names are those of the source.

B1: BktB (Cupriavidus necator H16; M158A) (protein)
chain: MTREVVVVSGVRTAIGTFGGSLKDVAPAELGALVVREALARAQVSGDDVGHVVFGNVIQTEPRDMYLGRVAAVNGGVTINAPALTVNRLCGSGLQAIVSAAQTILLGDTDVAIGGGAESMSRAPYLAPAARWGARMGDAGLVDMMLGALHDPFHRIHAGVTAENVAKEYDISRAQQDEAALESHRRASAAIKAGYFKDQIVPVVSKGRKGDVTFDTDEHVRHDATIDDMTKLRPVFVKENGTVTAGNASGLNDAAAAVVMMERAEAERRGLKPLARLVSYGHAGVDPKAMGIGPVPATKIALERAGLQVSDLDVIEANEAFAAQACAVTKALGLDPAKVNPNGSGISLGHPIGATGALITVKALHELNRVQGRYALVTMCIGGGQGIAAIFERI
B2: BktB (Cupriavidus necator H16) (protein)
chain: B1 chain with A158M

Legend:
[1] = substrate: CC(=O)CC(=O)SCCNC(=O)CCNC(=O)[C@H](O)C(C)(C)COP(=O)(O)OP(=O)(O)OC[C@H]1O[C@@H](n2cnc3c(N)ncnc32)[C@H](O)[C@@H]1OP(=O)(O)O; assay: thiolysis, decrease in A303 of Mg-keto-acyl-CoA complex, Michaelis-Menten fit; format: biochemical, Cupriavidus necator; details: C4 thiolysis, 200 μM CoASH, 10 mM MgCl2, 100 mM Tris pH 7.0
[2] = substrate: CCCC(=O)CC(=O)SCCNC(=O)CCNC(=O)[C@H](O)C(C)(C)COP(=O)(O)OP(=O)(O)OC[C@H]1O[C@@H](n2cnc3c(N)ncnc32)[C@H](O)[C@@H]1OP(=O)(O)O; assay: as above; format: biochemical, Cupriavidus necator; details: C6 thiolysis, 200 μM CoASH, 10 mM MgCl2, 100 mM Tris pH 7.0

| Protein | Km [1] | kcat [1] | kcat/Km [1] | Km [2] | kcat [2] | kcat/Km [2] |
| --- | --- | --- | --- | --- | --- | --- |
| B1 | 14.1 µM | 4.63 s⁻¹ | 328000 M⁻¹ s⁻¹ | 17 µM | 16.7 s⁻¹ | 982000 M⁻¹ s⁻¹ |
| B2 | 17.5 µM | 148 s⁻¹ | 8.45e+06 M⁻¹ s⁻¹ | 15.2 µM | 4.06 s⁻¹ | 267000 M⁻¹ s⁻¹ |
